Experimental data: patent US20140255415A1 (Novartis, published 2014)

Tests used:
[1] = biological target: T1, rat LINGO-1 expressed on CHO-K1 cells (CHO-K1-rLINGO-1) (rat, UniProt A0A8I5ZPI2 34-614); experiment: apparent KD, FACS saturation binding on CHO-K1-rLINGO-1 cells, Fab format
T1 construct: range 34-614; not shown: 2 amino acid residue linker
T1 sequence: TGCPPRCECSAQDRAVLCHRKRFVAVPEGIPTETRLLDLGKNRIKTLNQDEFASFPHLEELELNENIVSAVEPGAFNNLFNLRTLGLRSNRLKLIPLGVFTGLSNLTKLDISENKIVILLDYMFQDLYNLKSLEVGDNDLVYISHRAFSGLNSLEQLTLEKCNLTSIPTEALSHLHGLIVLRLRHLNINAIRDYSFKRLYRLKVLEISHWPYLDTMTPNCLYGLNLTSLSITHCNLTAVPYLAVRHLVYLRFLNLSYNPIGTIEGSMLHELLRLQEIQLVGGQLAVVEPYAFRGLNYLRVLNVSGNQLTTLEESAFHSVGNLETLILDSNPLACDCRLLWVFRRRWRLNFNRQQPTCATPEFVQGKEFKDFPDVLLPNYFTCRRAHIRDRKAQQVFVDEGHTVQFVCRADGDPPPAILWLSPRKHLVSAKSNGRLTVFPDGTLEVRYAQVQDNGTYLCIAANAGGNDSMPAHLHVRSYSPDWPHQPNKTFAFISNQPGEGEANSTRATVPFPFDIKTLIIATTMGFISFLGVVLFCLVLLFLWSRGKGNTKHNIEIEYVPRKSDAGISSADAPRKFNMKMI
Protocol: (§1) Cell based affinity of anti-LINGO-1 specific antibodies is determined by FACS saturation binding experiments. […] Otherwise the staining procedure is done identical to the FACS staining procedure described above.
(§2) In detail, CHO-K1-hLINGO-1, CHO-K1-cmLINGO-1 or CHO-K1-rLINGO-1 are detached from culture flasks by versene, washed with FACS buffer and resuspended in FACS buffer. Purified anti-LINGO-1 Fabs are serially diluted in FACS buffer and spread into round bottom 96-well microtiter plates (NUNC™, Wiesbaden, Germany). For each concentration, duplicate wells are incubated with 1.25×10⁴ cells for 30-60 min on ice in a total volume of 100 μl.

[2] = biological target: human LINGO-1 expressed on CHO-K1 cells (CHO-K1-hLINGO-1) (human) (UniProt Q96FE5); experiment: apparent KD, FACS saturation binding on CHO-K1-hLINGO-1 cells, Fab format
Unrelated Fc = experiment: ELISA, Fc fusion captured via goat anti-human IgG Fc, Fab detected with AP-conjugated secondary and AttoPhos
[3] = biological target: T2, human NgR-Fc fusion protein (R&D Systems) (human, UniProt Q9BZR6 27-447, limits assumed); experiment: ELISA, captured Fc fusion protein
T2 construct: Commercial protein; also called captured human NgR-Fc; not shown: Fc part of the commercial fusion protein; not described
T2 sequence (looked up): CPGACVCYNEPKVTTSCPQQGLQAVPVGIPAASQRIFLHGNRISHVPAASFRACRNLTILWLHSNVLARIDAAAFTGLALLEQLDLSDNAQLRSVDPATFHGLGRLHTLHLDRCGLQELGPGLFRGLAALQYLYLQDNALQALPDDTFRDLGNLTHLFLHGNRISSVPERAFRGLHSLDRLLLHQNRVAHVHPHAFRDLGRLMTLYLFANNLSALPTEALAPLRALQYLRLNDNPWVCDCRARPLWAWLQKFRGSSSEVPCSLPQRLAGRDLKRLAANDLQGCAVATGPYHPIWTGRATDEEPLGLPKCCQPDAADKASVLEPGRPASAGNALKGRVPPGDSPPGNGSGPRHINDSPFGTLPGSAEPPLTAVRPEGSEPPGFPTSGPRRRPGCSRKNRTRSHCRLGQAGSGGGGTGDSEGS

[4] = biological target: T3, human LINGO-1-ΔLRR-Fc (Igleader-hsLINGO-1-ΔLRR-Fc) (human, UniProt Q96FE5 40-556); experiment: ELISA, captured Fc fusion protein
T3 construct: Heterologous secretion signal left out; also called human LINGO-1 lacking the LRR domain
T3 sequence: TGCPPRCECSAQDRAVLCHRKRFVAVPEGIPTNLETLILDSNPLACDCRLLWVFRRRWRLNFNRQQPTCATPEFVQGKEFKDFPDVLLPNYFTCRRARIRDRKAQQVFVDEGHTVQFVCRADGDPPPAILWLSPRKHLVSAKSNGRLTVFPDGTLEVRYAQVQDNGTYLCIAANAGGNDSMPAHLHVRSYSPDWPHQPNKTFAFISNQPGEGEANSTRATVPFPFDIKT

[5] = biological target: T4, cynomolgus monkey LINGO-1 expressed on CHO-K1 cells (CHO-K1-cmLINGO-1) (cynomolgus monkey, UniProt Q9N008 34-614); experiment: apparent KD, FACS saturation binding on CHO-K1-cmLINGO-1 cells, Fab format
T4 construct: range 34-614; also called Cynomolgus LINGO-1; not shown: 2 amino acid residue linker
T4 sequence (looked up): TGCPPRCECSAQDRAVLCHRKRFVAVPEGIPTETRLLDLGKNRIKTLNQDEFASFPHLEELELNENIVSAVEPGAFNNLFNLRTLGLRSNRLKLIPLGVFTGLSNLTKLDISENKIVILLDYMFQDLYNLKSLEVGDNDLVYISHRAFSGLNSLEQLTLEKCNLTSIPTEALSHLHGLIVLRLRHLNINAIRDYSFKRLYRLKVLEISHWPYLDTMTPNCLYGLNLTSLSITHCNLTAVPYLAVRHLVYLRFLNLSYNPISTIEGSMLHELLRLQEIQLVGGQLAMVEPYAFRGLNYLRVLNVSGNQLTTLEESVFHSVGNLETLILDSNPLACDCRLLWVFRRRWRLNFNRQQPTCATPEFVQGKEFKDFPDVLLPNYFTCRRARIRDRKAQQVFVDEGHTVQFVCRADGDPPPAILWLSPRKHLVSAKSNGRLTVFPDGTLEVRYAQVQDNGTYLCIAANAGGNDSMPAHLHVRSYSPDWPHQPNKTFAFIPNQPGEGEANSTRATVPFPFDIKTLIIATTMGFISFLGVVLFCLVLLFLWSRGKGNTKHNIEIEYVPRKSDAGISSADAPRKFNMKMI
Protocol: as §1, §2

[6] = biological target: T5, human LINGO-1-Fc fusion protein (natleader-hsLINGO-1-Fc) (human, UniProt Q96FE5 42-556); experiment: ELISA, Fc fusion captured via goat anti-human IgG Fc, Fab detected with AP-conjugated secondary and AttoPhos
T5 construct: also called human recombinant LINGO-1-Fc; captured human LINGO-1-Fc; not shown: protein lette
T5 sequence: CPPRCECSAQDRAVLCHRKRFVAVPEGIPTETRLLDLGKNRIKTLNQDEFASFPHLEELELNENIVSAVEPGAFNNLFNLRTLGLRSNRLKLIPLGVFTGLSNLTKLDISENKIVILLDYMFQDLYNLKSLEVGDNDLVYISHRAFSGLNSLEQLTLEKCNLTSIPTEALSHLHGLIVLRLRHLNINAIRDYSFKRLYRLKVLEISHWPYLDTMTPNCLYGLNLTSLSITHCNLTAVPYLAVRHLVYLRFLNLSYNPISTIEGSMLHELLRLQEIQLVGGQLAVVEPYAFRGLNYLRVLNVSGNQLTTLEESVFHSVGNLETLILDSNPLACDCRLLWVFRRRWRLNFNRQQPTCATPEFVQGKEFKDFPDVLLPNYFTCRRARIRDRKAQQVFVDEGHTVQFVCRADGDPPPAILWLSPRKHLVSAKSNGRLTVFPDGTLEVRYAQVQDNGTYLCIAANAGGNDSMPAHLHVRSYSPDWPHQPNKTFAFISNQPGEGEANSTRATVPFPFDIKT

[7] = biological target: T2, human NgR-Fc fusion protein (R&D …); experiment: as above
[8] = biological target: T3, human LINGO-1-ΔLRR-Fc …; experiment: as above

B1: anti-LINGO-1 Fab 4784 (Fab, V domains shown)
VH: QVQLKESGPALVKPTQTLTLTCTFSGFSLSSSGVGVGWIRQPPGKALEWLAHIGSDDDKYYSTSLKTRLTISKDTSKNQVVLTMTNMDPVDTATYYCARNQQYGDGYPGYFDYWGQGTLVTVSS
VL: DIELTQPPSVSVAPGQTARISCSGDNIGNYYVYWYQQKPGQAPVLVIYEDTNRPSGIPERFSGSNSGNTATLTISGTQAEDEADYYCQSYDNLHEQVFGGGTKLTVLG
- Kd [1]: 24 nM
- Kd [2]: 14.1 nM
- relative fluorescence units (RFU) (Unrelated Fc): 52 RFU
- binding result [3]: no binding
- binding result [4]: no binding
- Kd [5]: 27.1 nM
- relative fluorescence units (RFU) [6]: 98 RFU
- relative fluorescence units (RFU) [7]: 68 RFU
- relative fluorescence units (RFU) [8]: 49 RFU
